Reference: patent publication US20220229068A1, “DETECTION OF PROTEIN TO PROTEIN INTERACTIONS” (THE GOVERNING COUNCIL OF THE UNIVERSITY OF TORONTO, priority 2019, published 2022)

Legend:
Assay in all cases: SIMPL ELISA, bait-IN/prey-CIC
[1] = biological target: GRB2 (prey, CIC format) (human) (UniProt P62993)
[2] = biological target: BCL2L1 (prey, CIC format) (human) (UniProt Q07817)
[3] = biological target: T1, DRAP1 (prey, CIC format) (human) (UniProt Q14919)
T1 sequence (looked up): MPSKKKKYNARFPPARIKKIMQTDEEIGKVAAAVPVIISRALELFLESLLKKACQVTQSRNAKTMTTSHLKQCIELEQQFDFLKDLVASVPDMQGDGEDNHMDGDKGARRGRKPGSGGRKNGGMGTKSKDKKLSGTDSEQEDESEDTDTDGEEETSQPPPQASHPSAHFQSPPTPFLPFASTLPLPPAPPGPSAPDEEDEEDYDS

[4] = biological target: CCNA1 (prey, CIC format) (human) (UniProt P78396)
[5] = biological target: CD58 (prey, CIC format) (human) (UniProt P19256)
Sequence of CD58 (prey, CIC format) (human) (P19256 29-250 limits assumed): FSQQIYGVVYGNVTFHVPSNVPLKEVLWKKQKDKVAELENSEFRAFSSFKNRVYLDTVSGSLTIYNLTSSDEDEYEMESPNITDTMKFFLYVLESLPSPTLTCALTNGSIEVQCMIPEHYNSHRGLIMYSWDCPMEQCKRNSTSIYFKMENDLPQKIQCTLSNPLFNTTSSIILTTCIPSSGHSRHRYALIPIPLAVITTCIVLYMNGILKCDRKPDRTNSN

[6] = biological target: T2, NCBP2 (prey, CIC format) (human) (UniProt P52298)
T2 sequence (looked up): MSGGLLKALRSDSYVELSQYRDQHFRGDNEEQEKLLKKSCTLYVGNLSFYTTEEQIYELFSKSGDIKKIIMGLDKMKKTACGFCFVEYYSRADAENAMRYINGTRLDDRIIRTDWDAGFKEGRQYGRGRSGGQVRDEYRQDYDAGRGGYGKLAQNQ

[7] = biological target: CGB5 (prey, CIC format) (human) (UniProt P0DN86)
[8] = biological target: MCM3 (prey, CIC format) (human) (UniProt P25205)
Sequence of MCM3 (prey, CIC format) (human) (P25205 whole entry): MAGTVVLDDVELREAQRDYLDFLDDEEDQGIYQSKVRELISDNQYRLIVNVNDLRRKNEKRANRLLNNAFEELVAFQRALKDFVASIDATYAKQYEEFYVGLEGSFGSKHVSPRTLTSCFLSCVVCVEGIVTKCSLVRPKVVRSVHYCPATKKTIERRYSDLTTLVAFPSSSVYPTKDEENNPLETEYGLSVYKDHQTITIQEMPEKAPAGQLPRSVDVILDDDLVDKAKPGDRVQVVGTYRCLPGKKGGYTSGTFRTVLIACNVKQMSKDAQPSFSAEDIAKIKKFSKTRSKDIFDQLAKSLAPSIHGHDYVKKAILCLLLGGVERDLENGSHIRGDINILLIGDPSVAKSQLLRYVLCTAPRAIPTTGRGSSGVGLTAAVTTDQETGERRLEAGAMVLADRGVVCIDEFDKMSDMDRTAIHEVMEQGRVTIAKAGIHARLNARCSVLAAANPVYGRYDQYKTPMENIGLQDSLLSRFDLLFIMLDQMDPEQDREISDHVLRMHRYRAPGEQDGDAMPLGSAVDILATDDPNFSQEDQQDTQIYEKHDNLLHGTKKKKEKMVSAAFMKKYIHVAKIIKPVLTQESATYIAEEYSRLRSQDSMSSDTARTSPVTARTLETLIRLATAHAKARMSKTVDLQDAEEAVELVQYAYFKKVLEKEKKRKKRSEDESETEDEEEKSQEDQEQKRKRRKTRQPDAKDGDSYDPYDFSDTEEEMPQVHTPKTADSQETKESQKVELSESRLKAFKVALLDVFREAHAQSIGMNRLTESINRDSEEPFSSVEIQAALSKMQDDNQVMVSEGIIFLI

[9] = biological target: DDIT3 (prey, CIC format) (human) (UniProt P35638)
[10] = biological target: PCNA (prey, CIC format) (human) (UniProt P12004)
Sequence of PCNA (prey, CIC format) (human) (P12004 whole entry): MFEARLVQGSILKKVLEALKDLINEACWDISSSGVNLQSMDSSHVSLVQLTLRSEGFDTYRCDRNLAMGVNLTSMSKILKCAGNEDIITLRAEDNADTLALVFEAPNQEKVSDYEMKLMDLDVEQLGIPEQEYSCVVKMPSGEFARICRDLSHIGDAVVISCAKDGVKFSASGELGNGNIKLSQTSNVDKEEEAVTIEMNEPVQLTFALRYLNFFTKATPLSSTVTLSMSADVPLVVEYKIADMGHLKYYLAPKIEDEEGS

[11] = biological target: T3, NRG1 (prey, CIC format) (human) (UniProt Q02297)
T3 sequence (looked up): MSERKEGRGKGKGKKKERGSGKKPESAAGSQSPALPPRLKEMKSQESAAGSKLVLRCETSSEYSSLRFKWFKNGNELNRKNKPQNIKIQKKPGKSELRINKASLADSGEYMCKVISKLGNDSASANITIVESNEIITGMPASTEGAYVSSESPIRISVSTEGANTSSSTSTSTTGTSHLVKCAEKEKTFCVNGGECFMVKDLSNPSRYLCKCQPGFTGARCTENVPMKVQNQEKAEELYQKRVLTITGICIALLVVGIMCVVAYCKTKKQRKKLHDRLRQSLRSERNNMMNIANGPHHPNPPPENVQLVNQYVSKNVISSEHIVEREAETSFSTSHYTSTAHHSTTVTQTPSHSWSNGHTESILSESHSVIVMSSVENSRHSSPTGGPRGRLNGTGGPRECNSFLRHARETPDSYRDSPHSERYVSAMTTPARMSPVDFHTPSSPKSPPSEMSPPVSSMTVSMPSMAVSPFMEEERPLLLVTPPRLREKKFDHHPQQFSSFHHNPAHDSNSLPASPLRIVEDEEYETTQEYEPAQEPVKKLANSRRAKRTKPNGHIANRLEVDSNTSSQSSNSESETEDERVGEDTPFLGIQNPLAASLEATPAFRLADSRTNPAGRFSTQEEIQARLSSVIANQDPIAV

[12] = biological target: GRAP2 (prey, CIC format) (human) (UniProt O75791)
Sequence of GRAP2 (prey, CIC format) (human) (O75791 whole entry): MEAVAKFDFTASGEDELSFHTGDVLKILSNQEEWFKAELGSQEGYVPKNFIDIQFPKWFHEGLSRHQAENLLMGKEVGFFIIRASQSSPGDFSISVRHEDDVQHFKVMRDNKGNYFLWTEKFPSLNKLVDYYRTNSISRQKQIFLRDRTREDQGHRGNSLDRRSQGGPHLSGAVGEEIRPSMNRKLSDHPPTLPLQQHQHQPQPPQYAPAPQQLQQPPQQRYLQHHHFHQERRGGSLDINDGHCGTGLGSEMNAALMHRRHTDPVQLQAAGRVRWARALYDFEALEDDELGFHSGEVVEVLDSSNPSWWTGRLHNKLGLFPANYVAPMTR

[13] = biological target: CKS1B (prey, CIC format) (human) (UniProt P61024)
[14] = biological target: ZBTB16 (prey, CIC format) (human) (UniProt Q05516)
Sequence of ZBTB16 (prey, CIC format) (human) (Q05516 whole entry): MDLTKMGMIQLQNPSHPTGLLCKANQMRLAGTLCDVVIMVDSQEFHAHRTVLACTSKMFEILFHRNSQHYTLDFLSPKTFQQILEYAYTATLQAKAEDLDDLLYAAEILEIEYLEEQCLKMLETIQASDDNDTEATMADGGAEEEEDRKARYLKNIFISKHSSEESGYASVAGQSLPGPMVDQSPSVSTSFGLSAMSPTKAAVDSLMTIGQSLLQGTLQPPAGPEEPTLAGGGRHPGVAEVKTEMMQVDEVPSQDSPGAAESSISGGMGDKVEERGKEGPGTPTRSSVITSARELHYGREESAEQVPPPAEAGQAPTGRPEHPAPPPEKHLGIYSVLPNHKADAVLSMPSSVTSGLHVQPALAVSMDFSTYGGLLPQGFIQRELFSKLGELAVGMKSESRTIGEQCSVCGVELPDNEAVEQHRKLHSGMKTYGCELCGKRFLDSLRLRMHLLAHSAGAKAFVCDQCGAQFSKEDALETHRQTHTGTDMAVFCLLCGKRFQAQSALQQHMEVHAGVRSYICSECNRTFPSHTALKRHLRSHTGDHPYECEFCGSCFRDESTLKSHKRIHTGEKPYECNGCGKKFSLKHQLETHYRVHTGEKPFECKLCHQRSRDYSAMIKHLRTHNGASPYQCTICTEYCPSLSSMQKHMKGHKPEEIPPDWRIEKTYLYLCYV

[15] = biological target: PPP3R1 (prey, CIC format) (human) (UniProt P63098)
Sequence of PPP3R1 (prey, CIC format) (human) (P63098 whole entry): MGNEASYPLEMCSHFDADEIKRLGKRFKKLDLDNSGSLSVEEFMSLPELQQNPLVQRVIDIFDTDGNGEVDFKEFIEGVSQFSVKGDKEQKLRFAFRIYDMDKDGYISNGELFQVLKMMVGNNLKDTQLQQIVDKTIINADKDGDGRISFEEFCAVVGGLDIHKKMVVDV

[16] = biological target: T4, LAT (prey, CIC format) (human) (UniProt O43561)
T4 sequence (looked up): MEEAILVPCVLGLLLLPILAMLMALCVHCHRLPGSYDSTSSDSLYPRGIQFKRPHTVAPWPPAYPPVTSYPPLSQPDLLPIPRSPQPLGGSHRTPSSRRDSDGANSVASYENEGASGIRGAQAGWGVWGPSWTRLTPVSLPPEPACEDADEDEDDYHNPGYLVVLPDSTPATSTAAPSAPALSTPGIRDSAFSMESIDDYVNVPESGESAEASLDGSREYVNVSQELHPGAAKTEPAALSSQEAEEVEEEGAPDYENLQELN

[17] = biological target: T5, RB1 (prey, CIC format) (human) (UniProt P06400)
T5 sequence (looked up): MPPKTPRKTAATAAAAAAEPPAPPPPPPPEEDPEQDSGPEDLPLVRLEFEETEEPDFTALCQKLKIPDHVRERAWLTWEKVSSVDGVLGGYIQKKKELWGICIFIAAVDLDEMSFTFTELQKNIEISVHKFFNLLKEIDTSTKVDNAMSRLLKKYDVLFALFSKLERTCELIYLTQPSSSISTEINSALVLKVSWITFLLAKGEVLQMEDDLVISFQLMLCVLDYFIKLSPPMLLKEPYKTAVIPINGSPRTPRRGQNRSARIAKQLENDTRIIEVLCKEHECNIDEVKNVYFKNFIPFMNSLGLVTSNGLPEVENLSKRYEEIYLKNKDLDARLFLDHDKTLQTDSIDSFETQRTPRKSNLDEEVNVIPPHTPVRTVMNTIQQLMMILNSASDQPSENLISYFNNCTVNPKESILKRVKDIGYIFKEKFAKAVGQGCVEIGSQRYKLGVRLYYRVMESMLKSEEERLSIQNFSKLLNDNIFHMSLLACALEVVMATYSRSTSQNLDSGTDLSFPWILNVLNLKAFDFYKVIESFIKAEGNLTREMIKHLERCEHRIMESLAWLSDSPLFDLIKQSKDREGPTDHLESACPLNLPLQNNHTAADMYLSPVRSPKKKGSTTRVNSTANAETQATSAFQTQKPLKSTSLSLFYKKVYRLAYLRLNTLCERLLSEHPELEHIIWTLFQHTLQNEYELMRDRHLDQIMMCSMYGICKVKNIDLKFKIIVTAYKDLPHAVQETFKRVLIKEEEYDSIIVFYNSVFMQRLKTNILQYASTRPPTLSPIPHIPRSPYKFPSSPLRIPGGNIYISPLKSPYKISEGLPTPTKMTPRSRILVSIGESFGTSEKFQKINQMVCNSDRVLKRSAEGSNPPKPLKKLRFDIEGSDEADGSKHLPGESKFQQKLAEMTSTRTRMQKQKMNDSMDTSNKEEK

[18] = biological target: T6, PEX11B (prey, CIC format) (human) (UniProt O96011)
T6 sequence (looked up): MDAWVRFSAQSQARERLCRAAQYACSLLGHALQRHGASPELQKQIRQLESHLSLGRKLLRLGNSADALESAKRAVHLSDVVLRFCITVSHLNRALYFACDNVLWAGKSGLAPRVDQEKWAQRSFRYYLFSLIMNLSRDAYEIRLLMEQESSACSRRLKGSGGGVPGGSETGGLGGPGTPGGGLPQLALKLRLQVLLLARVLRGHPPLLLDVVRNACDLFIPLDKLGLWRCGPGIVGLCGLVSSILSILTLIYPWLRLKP

[19] = biological target: NFE2L1 (prey, CIC format) (human) (UniProt Q14494)
Sequence of NFE2L1 (prey, CIC format) (human) (Q14494 whole entry): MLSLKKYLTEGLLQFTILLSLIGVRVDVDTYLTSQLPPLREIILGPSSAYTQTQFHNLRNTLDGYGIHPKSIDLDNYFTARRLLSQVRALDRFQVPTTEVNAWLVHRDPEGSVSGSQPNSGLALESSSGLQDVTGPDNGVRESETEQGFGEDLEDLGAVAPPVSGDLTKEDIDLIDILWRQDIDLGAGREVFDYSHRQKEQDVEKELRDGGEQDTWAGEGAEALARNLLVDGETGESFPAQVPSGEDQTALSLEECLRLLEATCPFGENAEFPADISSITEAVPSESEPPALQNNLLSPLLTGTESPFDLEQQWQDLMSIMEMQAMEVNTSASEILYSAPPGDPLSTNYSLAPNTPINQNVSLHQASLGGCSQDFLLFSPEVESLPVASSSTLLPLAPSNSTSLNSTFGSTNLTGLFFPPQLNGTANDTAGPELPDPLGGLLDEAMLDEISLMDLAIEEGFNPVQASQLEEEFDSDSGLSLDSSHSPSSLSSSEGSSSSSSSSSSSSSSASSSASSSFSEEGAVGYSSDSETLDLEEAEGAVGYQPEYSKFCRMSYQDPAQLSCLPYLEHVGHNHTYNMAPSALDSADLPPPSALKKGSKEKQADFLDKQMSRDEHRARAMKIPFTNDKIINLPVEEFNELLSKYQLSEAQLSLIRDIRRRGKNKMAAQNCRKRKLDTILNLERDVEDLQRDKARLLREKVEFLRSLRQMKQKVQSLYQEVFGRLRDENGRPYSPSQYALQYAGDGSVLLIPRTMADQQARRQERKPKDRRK

[20] = biological target: TNFRSF10B (prey, CIC format) (human) (UniProt O14763)
[21] = biological target: T7, MCM5 (prey, CIC format) (human) (UniProt P33992)
T7 sequence (looked up): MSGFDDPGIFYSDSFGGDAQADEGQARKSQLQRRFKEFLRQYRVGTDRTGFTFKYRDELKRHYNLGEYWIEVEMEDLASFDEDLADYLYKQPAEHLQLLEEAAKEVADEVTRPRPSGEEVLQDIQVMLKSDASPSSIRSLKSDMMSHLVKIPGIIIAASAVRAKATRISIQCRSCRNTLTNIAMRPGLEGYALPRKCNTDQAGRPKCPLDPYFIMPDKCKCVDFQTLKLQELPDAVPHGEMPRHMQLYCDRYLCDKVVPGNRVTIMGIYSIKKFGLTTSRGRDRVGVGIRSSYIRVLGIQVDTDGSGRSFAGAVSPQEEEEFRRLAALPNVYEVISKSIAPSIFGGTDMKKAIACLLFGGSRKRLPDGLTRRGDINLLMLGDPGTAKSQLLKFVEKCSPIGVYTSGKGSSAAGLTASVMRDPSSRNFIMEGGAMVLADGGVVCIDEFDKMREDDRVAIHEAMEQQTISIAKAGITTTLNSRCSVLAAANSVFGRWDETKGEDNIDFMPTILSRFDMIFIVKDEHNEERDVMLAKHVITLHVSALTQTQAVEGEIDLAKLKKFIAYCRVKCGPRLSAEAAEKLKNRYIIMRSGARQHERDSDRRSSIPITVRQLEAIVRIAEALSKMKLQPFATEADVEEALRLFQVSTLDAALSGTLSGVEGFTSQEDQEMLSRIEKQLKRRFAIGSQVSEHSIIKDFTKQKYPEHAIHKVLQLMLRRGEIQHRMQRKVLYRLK

[22] = biological target: T8, S100B (prey, CIC format) (human) (UniProt P04271)
T8 sequence (looked up): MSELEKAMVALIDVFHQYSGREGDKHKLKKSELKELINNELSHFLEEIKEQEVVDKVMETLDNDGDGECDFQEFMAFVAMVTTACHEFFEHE

[23] = biological target: T9, BATF (prey, CIC format) (human) (UniProt Q16520)
T9 sequence (looked up): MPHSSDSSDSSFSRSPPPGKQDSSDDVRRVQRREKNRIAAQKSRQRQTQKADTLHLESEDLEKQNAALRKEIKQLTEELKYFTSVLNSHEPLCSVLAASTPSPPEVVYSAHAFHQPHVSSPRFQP

[24] = biological target: PEX16 (prey, CIC format) (human) (UniProt Q9Y5Y5)
Sequence of PEX16 (prey, CIC format) (human) (Q9Y5Y5 whole entry): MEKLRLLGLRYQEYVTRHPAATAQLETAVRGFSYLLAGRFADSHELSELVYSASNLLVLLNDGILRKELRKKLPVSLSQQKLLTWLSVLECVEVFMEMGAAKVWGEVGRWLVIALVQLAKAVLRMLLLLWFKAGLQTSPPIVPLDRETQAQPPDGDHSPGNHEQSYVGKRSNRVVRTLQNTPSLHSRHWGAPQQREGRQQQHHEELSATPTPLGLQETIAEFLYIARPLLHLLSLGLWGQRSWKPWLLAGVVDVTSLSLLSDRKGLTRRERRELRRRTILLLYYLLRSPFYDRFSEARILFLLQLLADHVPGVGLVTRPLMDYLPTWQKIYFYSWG

[25] = biological target: CASP3 (prey, CIC format) (human) (UniProt P42574)
Sequence of CASP3 (prey, CIC format) (human) (P42574 whole entry): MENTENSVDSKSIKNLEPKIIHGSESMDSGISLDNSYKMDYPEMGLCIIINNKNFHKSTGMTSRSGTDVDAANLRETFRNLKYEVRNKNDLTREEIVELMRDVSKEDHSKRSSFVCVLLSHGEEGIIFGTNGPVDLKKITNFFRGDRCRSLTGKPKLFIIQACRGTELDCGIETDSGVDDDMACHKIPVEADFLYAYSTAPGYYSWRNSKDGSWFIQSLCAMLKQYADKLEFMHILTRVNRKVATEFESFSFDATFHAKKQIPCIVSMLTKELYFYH

[26] = biological target: T10, DCP1A (prey, CIC format) (human) (UniProt Q9NPI6)
T10 sequence (looked up): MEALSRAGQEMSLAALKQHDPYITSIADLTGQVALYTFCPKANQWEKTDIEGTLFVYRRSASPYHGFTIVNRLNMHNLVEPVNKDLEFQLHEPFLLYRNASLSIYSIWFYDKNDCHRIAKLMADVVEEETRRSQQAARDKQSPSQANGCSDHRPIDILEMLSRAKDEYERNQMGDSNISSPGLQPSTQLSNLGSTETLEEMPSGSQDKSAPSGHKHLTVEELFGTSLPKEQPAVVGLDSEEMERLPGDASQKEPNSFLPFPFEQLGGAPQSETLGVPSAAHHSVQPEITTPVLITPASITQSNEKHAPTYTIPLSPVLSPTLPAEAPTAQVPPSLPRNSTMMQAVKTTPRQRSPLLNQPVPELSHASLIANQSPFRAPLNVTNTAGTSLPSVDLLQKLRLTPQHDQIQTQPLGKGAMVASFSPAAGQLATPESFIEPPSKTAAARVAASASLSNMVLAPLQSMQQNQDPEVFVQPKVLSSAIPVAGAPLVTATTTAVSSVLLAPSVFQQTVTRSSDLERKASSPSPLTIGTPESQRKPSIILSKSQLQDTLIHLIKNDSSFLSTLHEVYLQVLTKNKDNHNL

Sequence of S100A1 (bait, IN format) (P23297 whole entry): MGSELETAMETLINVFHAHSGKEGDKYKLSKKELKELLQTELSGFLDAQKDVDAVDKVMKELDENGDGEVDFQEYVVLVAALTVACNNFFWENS
Sequence of HDAC1 (bait, IN format) (Q13547 whole entry): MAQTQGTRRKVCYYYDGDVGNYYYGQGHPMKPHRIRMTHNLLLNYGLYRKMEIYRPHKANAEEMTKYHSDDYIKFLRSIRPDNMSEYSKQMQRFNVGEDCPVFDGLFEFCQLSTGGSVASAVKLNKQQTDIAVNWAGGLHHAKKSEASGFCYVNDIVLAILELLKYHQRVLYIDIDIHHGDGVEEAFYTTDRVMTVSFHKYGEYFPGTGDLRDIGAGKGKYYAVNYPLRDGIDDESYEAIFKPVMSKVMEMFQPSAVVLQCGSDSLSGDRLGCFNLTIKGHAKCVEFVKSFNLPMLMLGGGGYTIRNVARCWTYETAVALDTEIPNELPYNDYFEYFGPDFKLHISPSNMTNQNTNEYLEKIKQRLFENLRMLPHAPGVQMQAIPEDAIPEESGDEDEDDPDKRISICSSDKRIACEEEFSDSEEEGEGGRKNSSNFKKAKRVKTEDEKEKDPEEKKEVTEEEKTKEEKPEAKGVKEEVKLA
Sequence of BCL2L1 (prey, CIC format) (human) (Q07817 whole entry): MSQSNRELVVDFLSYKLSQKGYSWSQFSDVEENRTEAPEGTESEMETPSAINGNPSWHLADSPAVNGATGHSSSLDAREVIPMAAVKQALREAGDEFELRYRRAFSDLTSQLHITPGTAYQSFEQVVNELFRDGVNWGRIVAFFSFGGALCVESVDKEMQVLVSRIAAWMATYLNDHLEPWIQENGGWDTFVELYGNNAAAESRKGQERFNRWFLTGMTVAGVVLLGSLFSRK
Sequence of GRB2 (prey, CIC format) (human) (P62993 whole entry): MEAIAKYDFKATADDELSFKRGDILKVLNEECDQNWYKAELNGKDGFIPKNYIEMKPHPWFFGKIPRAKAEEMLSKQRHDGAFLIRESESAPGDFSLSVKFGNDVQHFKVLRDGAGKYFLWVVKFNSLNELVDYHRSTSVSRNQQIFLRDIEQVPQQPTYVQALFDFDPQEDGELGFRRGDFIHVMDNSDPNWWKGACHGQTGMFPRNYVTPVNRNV

CBLB (bait, IN format) (from UniProt Q13191 1-982)
PLU mean [1]: 2.61
PLU mean [2]: 0.272

CDKN1B (bait, IN format) (from UniProt P46527 1-198)
PLU mean [3]: 0.229
PLU mean [4]: 0.686

CGA (bait, IN format) (from UniProt P01215 25-116) (ligand)
PLU mean [5]: 0.131
PLU mean [6]: 0.0363
PLU mean [7]: 0.435
PLU mean [8]: 0.0738

ERBB3 (bait, IN format) (from UniProt P21860 20-1342) (receptor)
PLU mean [9]: 0.28
PLU mean [10]: 0.0812
PLU mean [11]: 1.22

FEN1 (bait, IN format) (from UniProt P39748 1-380) (enzyme)
PLU mean [10]: 0.349
PLU mean [12]: 0.342

HBA2 (bait, IN format) (from UniProt P69905 1-142)
PLU mean [13]: 0.171

HDAC1 (bait, IN format) (from UniProt Q13547 1-482) (enzyme)
PLU mean [14]: 0.492
PLU mean [15]: 0.247
PLU mean [16]: 0.222
PLU mean [17]: 0.54

MAFG (bait, IN format) (from UniProt O15525 1-162)
PLU mean [18]: 0.341
PLU mean [19]: 1.72
PLU mean [20]: 0.459

MCM2 (bait, IN format) (from UniProt P49736 1-904)
PLU mean [21]: 0.35
PLU mean [22]: 0.102
PLU mean [8]: 0.938

PEX19 (bait, IN format) (from UniProt P40855 1-299)
PLU mean [23]: 0.154
PLU mean [18]: 1.18
PLU mean [24]: 1.09

S100A1 (bait, IN format) (from UniProt P23297 1-94)
PLU mean [25]: 0.158
PLU mean [22]: 0.822

SMAD4 (bait, IN format) (from UniProt Q13485 1-552)
PLU mean [26]: 0.398
PLU mean [16]: 0.215
